Source: PMC11270187 (Antibodies, 2024)
Substitutions are numbered along the chain they refer to. Names may count otherwise.

B1: parental 44H10 IgG (antibody, V domains shown)
VH: QVQLKESGPGLVAPSQSLSITCTVSGFSLTSYGVHWVRQPPGKGLEWLGVIWAGGSINYNSALMSRLSISKDNFKSQVFLKMSSLQTDDTAMYYCARAYGDYVHYAMDYWGQGTSVTASS
VL: DIQMTQSPSSLSASLGQRVSLTCRASQEISGYLTWLQQKPDGTIKRLVYAASTLDSGVPKRFSGSRSGSDYSLTISSLESEDFADYYCLQYTNYPLTFGAGTKLELK
notes: murine IGHV2-9; Fab part also in PDB 8EUQ; murine IGKV9-124; also in PDB 8EUQ; IgG; also called mAb 44H10; murine mAb 44H10; source: FreeStyle 293-F, transfected, purified (protein A, SEC)
B2:  (Fab, V domains shown)
VH: QVQLQESGPGLVKPSETLSLTCTVSGFSLTSYGVHWIRQPPGKGLEWIGVIWAGGSINYNSALMSRVTISKDTSKNQVSLKLSSVTAADTAVYYCARAYGDYVHYAMDYWGQGTLVTVSS
VL: DIQMTQSPSSLSASVGDRVTITCRASQEISGYLTWLQQKPGKAPKLLIYAASTLDSGVPSRFSGSGSGTDFTLTISSLQPEDFATYYCLQYTNYPLTFGQGTKLEIK
notes: as the heavy chain of m11 with the changes below; as the light chain of m11; also called V14-V71K/F78V double mutant; V14-V71K-F78V; source: FreeStyle 293-F, transfected, purified (KappaSelect, MonoS, SEC)
B3: humanized 44H10 version 20 IgG (V17 with light chain S60K back-mutation) (antibody, V domains shown)
VH: QVTLKESGPVLVKPTETLTLTCTVSGFSLTSYGVHWIRQPPGKALEWLAVIWAGGSISYSTSLMSRLTISKDTSKSQVVLTMTNMDPVDTATYYCARAYGDYVHYAMDYWGQGTLVTVSS
VL: B2 VL with S60K
notes: as the heavy chain of m5; as the light chain of m5 with the change below; IgG with human Fc; also called V20; source: FreeStyle 293-F, transfected, purified (protein A, SEC)
B4: humanized 44H10 version 22 IgG (antibody, V domains shown)
VH: B2 VH
VL: B2 VL with S60K, G66R
notes: as the heavy chain of m10 (IGHV4-59 with Kabat 44H10 CDRs) with the back-mutations below; as the light chain of m5 (IGKV1-16, printed here as IGHK1-16, with Kabat 44H10 CDRs) with the back-mutations below; IgG with human Fc; also called V22; lead humanized candidate; source: FreeStyle 293-F, transfected, purified (protein A, SEC)
B5: humanized 44H10 version 19 IgG (V17 with light chain G66R back-mutation) (antibody, V domains shown)
VH: B3 VH
VL: B2 VL with G66R
notes: as the heavy chain of m5; as the light chain of m5 with the change below; IgG with human Fc; also called V19; source: FreeStyle 293-F, transfected, purified (protein A, SEC)
B6: humanized 44H10 version 21 IgG (V17 with light chain S60K and G66R back-mutations) (antibody, V domains shown)
VH: B3 VH
VL: B2 VL with S60K, G66R
notes: as the heavy chain of m5 (IGHV2-26 with Kabat 44H10 CDRs); as the light chain of m5 with the changes below; IgG with human Fc; also called V21; source: FreeStyle 293-F, transfected, purified (protein A, SEC)

Assays:
[1] = biological target: T1, HLA-DR on BJAB cells (Homo sapiens; endogenous HLA-DR of BJAB …); assay: flow cytometry on cells; screen: purified IgGs at 10 µg/mL on HLA-DR-expressing BJAB cells, Fc Block, 1 h at 4 °C, detected with AF488 goat anti-human IgG Fcγ; settings: one partner purified
T1 construct: HLA-DR α chain, endogenous on BJAB B-lymphoblastoid cells; HLA-DR β chain, endogenous on BJAB B-lymphoblastoid cells; also called HLA-DR-expressing B-lymphoblastoid cell line BJAB; source: endogenous, on BJAB cells

[2] = biological target: T2, TEV-cleaved recombinant HLA-DR (Homo sapiens, …); assay: BLI; Fabs loaded on FAB2G biosensors; two-fold dilutions of TEV-cleaved HLA-DR from 500 nM; 25 °C; PBS pH 7.4, 0.01% BSA, 0.002% Tween; 1:1 model; settings: both partners purified
T2 construct: also called TEV-cleaved HLA-DR; source: HEK 293S (GnT I-/-), purified (HisTrap Ni-NTA, SEC), TEV-cleaved; for crystallization also EndoH-treated and purified a second time

[3] = biological target: T1, HLA-DR on BJAB cells; assay: flow cytometry on cells; full antibody titration of purified IgGs on HLA-DR-expressing BJAB cells, Fc Block, 1 h at 4 °C, detected with AF488 goat anti-human IgG Fcγ; also after storage of the IgGs at -20, 4 or 40 °C for up to 4 weeks; settings: one partner purified

Binder	fold improvement of EC50 against V17 [3] [fold]	further results
B1		binding result [1]: binds
B2		Kd [2]: 206 nM
B3	~3	
B4		fold reduction in EC50 against parental 44H10 IgG [3]: < 2 fold
B5	~3	
B6	~3	
